Series [1] concerns the target T1, GlnA4 (gamma-glutamylethanolamide synthetase) (Streptomyces coelicolor, UniProt O88070).
T1 construct: His-GlnA4
T1 sequence (O88070 1-462): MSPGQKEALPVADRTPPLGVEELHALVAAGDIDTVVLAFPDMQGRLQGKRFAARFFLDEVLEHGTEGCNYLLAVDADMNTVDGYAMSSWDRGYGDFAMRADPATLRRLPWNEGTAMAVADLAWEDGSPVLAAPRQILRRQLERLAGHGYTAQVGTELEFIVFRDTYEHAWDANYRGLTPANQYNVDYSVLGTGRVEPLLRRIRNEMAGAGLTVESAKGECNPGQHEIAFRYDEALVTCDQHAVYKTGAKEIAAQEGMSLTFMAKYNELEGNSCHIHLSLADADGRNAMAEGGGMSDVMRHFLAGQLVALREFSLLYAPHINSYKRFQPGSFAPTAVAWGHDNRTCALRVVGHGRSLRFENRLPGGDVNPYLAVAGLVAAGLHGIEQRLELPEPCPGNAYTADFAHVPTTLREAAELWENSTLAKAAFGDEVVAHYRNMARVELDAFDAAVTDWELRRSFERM
In words: HPLC/ESI-MS detection of reaction product of purified His-GlnA4. The class given is biochemical.

The target in series [2] is T1, GlnA4 (gamma-glutamylethanolamide synthetase). In words: Pi-release inhibition assay with purified His-GlnA4, Ki from IC50 (Cheng-Prusoff); weak. The class given is biochemical.
Substrate in series [3]: NCCO
In words: purified protein. The settings on record: ATP, Mg2+ (MgCl2).

Substrate in series [4]: N[C@@H](CCC(=O)O)C(=O)O
In words: purified protein. Conditions: ATP, Mg2+ (MgCl2).

Substrate in series [5]: Nc1ncnc2c1ncn2[C@@H]1O[C@H](COP(=O)(O)OP(=O)(O)OP(=O)(O)O)[C@@H](O)[C@H]1O
Put plainly: Pi-release enzyme kinetics with purified His-GlnA4. The settings on record: Mg2+ (MgCl2). In kind it is biochemical, Streptomyces coelicolor.

For the molecule `N[C@@H](CCC(=O)NCCO)C(=O)O` [gamma-glutamylethanolamide], the “HPLC/ESI-MS detection of reaction product of purified His-GlnA4” value in series [1] is “GlnA4 is a functional gamma-glutamylethanolamide synthetase that uses glutamate and ethanolamine as substrates to generate gamma-glutamylethanolamide”. As a reminder, the Ki is the equilibrium dissociation constant of an inhibitor or competing ligand from its target. In series [2], `CS(=N)(=O)CC[C@H](N)C(=O)O` (some centres unmarked) [methionine sulfoximine] registered a Ki of about 11 mM.

B1: GlnA4 (gamma-glutamylethanolamide synthetase) (Streptomyces coelicolor A3(2)) (protein)
chain: T1 sequence (O88070 1-462)
notes: His-GlnA4
The term Km denotes the concentration of substrate that gives half-maximal velocity. In the case of B1, the values for the Km in series [3], in series [4] and in series [5] were 470 µM, 85410 µM and 2500 µM, respectively.

These data come from publication PMC6529630 (mBio, 2019).
